Measurements published in article PMC5116005 (Journal of molecular biology, 2016).
Ends that are not written are not given here.

Experiments:
NtrC1^C oligomer = assay: Native PAGE gel binding assay, dye fluorescence visualized at 488 nm; set-up: species or system Aquifex aeolicus; settings: 0.16 µM Alexa488-σ54(16-41), ADP-BeF3− at 500 µM, native PAGE 4–15%, Typhoon 488 nm
[1] = target: Alexa488-full length σ^54 (K2C) (UniProt P24255); assay: fluorescence polarisation
[2] = target: T1, NtrC1^C(121–387), central AAA+ ATPase domain of A. aeolicus NtrC1 (A. aeolicus, UniProt O67198 121-387); assay: fluorescence polarisation
T1 sequence (looked up): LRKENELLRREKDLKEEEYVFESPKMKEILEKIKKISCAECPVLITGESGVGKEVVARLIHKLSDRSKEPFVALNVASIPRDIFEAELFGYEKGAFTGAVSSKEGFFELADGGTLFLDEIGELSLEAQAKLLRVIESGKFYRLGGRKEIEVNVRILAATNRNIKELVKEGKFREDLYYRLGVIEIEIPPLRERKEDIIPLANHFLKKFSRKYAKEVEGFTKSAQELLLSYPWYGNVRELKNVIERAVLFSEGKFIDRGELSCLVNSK

With “Alexa488-σ^54(16-41): σ54(16-41) with N-terminal Trp-Cys, cysteine derivatized with Alexa Fluor 488 maleimide (WC(Alexa Fluor 488 maleimide)LLLKQDLELLTYQTQELEKLIHEEVL)” the “Binding to NtrC1^C oligomer on native gel with ADP-BeF3−” value (NtrC1^C oligomer) was “bound to NtrC1^C”.

B1: NtrC1^C(121–387), central AAA+ ATPase domain of A. aeolicus NtrC1 (domain or fragment)
chain: T1 sequence (looked up)
Work on B1 yielded a Kd [1] of 2000 nM.

For WC(Alexa Fluor 488 maleimide)LLLKQDLELLTYQTQELEKLIHEEVL [Alexa488-σ^54(16-41) (A.a. σ^54(WC-16-41))], the Kd [2] was 1000 nM.
